According to patent publication US20200317768A1 (published 2020):
Numbering of substitutions follows the chain as printed. In names and notes the source's numbering stands.

T1: cynomolgus monkey FcγRIIa3 extracellular domain, His-tagged (cynomolgus monkey)
T1 construct: also called cyno FcγRIIa3; cynoFcgRIIa3
T1 chain: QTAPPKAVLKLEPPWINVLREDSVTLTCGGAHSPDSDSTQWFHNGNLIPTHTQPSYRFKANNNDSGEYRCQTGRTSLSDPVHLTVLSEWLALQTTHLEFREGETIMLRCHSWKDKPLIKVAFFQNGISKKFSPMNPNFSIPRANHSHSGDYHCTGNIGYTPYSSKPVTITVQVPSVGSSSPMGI

T2: cynomolgus monkey FcγRIIa1 extracellular domain, C-terminal His-tag (cynomolgus monkey)
T2 construct: also called cyno FcγRIIa1; cynoFcgRIIa1; not shown: His-tag added to C-terminus
T2 chain: T1 chain with T95P, A121T, S128A, P133H, N135D

T3: cynomolgus monkey FcγRIIa2 extracellular domain, C-terminal His-tag (cynomolgus monkey)
T3 construct: also called cyno FcγRIIa2; cynoFcgRIIa2; not shown: His-tag added to C-terminus
T3 chain: T1 chain with I127K, K130N, P133H, R142Q

T4: cynomolgus monkey FcγRIIb extracellular domain, C-terminal His-tag (cynomolgus monkey)
T4 construct: also called cyno FcγRIIb; cynoFcγRIIb; not shown: His-tag added to C-terminus
T4 chain: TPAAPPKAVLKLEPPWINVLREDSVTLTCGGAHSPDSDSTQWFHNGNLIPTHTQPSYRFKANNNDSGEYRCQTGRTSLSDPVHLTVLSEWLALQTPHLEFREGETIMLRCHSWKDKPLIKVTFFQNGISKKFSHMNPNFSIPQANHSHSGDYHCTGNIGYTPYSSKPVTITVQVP

T5: human FcγRIIaH extracellular domain, C-terminal His-tag (human, UniProt P12318 34-217)
T5 construct: also called human FcγRIIa (type H); FcgRIIaH; not shown: His-tag added to C-terminus
T5 sequence: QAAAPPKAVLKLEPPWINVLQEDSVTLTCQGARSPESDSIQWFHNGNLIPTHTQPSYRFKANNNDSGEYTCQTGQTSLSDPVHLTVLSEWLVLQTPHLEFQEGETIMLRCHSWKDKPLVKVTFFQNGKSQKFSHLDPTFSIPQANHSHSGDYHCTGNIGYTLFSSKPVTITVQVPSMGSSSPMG

T6: human FcγRIIb extracellular domain, C-terminal His-tag (human, UniProt P31994 43-217)
T6 construct: also called FcgRIIb (human); not shown: His-tag added to C-terminus
T6 sequence: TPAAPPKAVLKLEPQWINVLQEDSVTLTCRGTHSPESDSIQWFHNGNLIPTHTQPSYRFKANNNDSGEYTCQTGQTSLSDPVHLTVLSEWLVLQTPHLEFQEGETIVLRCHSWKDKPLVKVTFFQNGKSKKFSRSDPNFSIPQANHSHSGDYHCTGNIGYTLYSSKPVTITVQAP

B1: MS_M103205H795-SG1/M103202L889-SK1 (antibody, human IgG1, kappa)
heavy: not shown
light: DIVMTQSPATLSLSPGERATLSCTSSQSVYHANWLSWFQQKPGQPPKLLIYWASTLAYGVPSRFSGSGSGTDFTLTISSLQPEDAATYYCAGGYGGGRYAFGQGTKVEIKRTVAAPSVFIFPPSDEQLKSGTASVVCLLNNFYPREAKVQWKVDNALQSGNSQESVTEQDSKDSTYSLSSTLTLSKADYEKHKVYACEVTHQGLSSPVTKSFNRGEC
notes: Parent antibody of the Fc variants; heavy chain constant region SG1, light chain M103202L889-SK1; also called MS1032LO06-SG1
B2: M103205H795-MY065/M103202L889-SK1 (antibody, human IgG1, kappa)
heavy: not shown
light: B1 light
notes: Substitution put into M103205H795-SG1
B3: M103205H795-MY069/M103202L889-SK1 (antibody, human IgG1, kappa)
heavy: not shown
light: B1 light
notes: as for B2
B4: M103205H795-MY070/M103202L889-SK1 (antibody, human IgG1, kappa)
heavy: not shown
light: B1 light
notes: as for B2
B5: M103205H795-MY013/M103202L889-SK1 (antibody, human IgG1, kappa)
heavy: not shown
light: B1 light
notes: as for B2
B6: M103205H795-MY016/M103202L889-SK1 (antibody, human IgG1, kappa)
heavy: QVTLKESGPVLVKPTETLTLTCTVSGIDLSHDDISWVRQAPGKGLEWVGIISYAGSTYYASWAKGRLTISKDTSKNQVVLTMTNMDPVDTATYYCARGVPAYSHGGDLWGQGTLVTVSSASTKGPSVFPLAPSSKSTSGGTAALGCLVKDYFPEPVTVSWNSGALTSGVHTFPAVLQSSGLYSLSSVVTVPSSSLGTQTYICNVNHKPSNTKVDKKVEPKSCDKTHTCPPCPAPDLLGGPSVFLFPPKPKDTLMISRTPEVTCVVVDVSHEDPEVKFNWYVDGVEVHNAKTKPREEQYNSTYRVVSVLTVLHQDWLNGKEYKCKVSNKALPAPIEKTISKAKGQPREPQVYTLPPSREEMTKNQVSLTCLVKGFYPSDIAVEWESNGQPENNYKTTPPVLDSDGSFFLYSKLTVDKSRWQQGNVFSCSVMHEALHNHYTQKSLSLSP
light: B1 light
notes: as for B2
B7: M103205H795-MY038/M103202L889-SK1 (antibody, human IgG1, kappa)
heavy: not shown
light: B1 light
notes: as for B2
B8: M103205H795-MY010/M103202L889-SK1 (antibody, human IgG1, kappa)
heavy: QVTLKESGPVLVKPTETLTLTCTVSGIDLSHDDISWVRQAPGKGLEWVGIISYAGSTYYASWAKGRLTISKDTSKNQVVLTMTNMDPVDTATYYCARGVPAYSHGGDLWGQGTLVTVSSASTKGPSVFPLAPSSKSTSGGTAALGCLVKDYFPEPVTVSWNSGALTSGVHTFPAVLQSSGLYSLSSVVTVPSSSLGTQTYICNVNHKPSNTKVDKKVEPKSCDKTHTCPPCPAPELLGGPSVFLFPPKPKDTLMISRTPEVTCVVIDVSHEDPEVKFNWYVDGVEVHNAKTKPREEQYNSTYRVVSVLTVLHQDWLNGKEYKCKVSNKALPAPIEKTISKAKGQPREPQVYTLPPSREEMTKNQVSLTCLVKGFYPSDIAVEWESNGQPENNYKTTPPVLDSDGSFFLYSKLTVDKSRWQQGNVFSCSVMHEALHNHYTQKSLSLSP
light: B1 light
notes: as for B2
B9: M103205H795-MY041/M103202L889-SK1 (antibody, human IgG1, kappa)
heavy: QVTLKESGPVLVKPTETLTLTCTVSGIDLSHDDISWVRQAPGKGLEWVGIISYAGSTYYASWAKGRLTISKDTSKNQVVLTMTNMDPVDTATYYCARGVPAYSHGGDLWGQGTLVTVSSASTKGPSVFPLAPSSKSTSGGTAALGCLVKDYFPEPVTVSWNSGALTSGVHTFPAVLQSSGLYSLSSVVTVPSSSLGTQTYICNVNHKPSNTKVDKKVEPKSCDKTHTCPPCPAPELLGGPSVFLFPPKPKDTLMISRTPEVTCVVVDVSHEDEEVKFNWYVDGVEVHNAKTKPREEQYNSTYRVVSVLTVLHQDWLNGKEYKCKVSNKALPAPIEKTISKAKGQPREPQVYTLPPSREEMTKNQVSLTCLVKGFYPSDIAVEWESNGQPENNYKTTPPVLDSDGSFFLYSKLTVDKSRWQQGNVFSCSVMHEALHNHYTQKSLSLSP
light: B1 light
notes: as for B2
B10: M103205H795-MY063/M103202L889-SK1 (antibody, human IgG1, kappa)
heavy: not shown
light: B1 light
notes: as for B2
B11: M103205H795-MY008/M103202L889-SK1 (antibody, human IgG1, kappa)
heavy: not shown
light: B1 light
notes: as for B2
B12: M103205H795-MY073/M103202L889-SK1 (antibody, human IgG1, kappa)
heavy: not shown
light: B1 light
notes: as for B2
B13: M103205H795-MY006/M103202L889-SK1 (antibody, human IgG1, kappa)
heavy: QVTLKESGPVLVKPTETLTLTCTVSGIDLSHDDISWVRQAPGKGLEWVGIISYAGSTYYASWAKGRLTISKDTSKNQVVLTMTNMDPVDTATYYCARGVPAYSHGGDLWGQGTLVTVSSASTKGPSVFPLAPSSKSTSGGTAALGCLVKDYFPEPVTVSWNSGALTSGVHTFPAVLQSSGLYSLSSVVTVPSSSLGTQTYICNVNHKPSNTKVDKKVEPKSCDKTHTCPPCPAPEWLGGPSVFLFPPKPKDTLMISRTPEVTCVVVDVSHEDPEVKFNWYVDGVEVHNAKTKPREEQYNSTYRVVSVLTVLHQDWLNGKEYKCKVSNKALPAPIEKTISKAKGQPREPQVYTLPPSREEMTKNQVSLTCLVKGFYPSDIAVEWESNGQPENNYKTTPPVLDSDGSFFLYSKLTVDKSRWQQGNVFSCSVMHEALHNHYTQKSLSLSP
light: B1 light
notes: as for B2
B14: M103205H795-MY072/M103202L889-SK1 (antibody, human IgG1, kappa)
heavy: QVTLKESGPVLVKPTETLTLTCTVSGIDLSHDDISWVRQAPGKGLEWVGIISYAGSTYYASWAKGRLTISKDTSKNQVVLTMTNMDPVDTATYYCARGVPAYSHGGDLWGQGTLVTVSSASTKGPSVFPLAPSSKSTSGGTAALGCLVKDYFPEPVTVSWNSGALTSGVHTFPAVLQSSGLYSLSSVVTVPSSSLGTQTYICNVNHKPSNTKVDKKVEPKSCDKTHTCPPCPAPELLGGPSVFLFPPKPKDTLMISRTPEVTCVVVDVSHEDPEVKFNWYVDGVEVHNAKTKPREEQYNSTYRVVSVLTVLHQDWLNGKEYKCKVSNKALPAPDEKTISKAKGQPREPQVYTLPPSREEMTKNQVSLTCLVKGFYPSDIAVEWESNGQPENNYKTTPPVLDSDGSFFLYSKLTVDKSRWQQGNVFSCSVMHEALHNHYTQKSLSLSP
light: B1 light
notes: as for B2
B15: M103205H795-MY048/M103202L889-SK1 (P271D) (antibody, human IgG1, kappa)
heavy: not shown
light: B1 light
notes: Here the P271D molecule is meant; Put into M103205H795-SG1
B16: M103205H795-MY045/M103202L889-SK1 (antibody, human IgG1, kappa)
heavy: not shown
light: B1 light
notes: as for B2
B17: M103205H795-MY037/M103202L889-SK1 (antibody, human IgG1, kappa)
heavy: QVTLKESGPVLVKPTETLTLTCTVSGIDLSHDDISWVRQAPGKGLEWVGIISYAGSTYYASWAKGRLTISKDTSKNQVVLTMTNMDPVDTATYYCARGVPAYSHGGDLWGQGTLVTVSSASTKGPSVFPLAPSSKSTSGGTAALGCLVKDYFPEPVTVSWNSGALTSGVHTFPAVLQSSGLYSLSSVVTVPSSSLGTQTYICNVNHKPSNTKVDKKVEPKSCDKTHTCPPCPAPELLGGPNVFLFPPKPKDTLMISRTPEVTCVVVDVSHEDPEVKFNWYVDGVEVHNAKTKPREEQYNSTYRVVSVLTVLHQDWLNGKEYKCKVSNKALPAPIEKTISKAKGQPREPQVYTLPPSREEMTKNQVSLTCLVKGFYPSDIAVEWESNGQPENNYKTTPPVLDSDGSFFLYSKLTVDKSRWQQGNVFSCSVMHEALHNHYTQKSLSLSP
light: B1 light
notes: as for B2
B18: M103205H795-MY043/M103202L889-SK1 (antibody, human IgG1, kappa)
heavy: not shown
light: B1 light
notes: as for B2
B19: M103205H795-MY044/M103202L889-SK1 (antibody, human IgG1, kappa)
heavy: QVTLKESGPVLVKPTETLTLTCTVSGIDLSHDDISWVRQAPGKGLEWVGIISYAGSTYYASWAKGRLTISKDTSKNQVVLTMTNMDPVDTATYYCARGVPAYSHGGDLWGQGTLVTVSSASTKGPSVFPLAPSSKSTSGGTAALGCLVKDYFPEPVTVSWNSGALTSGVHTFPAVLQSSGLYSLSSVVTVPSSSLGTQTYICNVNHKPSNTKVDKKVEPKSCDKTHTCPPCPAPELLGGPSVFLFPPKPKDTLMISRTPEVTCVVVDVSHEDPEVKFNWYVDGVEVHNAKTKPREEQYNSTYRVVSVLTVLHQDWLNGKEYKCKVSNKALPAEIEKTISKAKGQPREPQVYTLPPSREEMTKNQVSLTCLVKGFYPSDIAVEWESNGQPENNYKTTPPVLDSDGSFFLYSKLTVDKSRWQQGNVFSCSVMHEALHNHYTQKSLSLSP
light: B1 light
notes: as for B2
B20: M103205H795-MY124/M103202L889-SK1 (antibody, human IgG1, kappa)
heavy: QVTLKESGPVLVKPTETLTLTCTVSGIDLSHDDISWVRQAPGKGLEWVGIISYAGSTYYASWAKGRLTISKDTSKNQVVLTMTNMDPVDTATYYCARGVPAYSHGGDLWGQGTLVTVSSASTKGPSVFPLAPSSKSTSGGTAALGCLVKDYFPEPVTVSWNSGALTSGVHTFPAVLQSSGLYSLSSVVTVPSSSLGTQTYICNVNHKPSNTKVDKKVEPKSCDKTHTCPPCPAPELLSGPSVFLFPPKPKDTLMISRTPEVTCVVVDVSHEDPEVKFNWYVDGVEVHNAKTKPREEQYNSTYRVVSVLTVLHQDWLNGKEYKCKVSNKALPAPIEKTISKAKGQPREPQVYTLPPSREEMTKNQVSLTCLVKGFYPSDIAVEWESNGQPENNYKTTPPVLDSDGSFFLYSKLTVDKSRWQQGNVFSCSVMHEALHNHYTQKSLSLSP
light: B1 light
notes: as for B2
B21: M103205H795-MY071/M103202L889-SK1 (antibody, human IgG1, kappa)
heavy: not shown
light: B1 light
notes: as for B2
B22: M103205H795-MY014/M103202L889-SK1 (antibody, human IgG1, kappa)
heavy: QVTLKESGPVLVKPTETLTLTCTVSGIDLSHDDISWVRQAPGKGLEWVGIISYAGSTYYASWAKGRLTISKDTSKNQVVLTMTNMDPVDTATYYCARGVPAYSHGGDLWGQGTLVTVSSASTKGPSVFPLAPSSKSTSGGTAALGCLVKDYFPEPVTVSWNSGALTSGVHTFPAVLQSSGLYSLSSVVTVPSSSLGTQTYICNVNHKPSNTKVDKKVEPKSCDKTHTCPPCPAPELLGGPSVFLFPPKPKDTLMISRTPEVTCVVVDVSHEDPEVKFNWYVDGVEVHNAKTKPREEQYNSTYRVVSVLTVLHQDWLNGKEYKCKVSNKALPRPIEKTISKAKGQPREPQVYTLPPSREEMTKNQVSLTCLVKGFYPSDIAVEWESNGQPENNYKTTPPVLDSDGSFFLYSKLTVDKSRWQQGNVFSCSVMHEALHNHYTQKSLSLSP
light: B1 light
notes: as for B2
B23: M103205H795-MY064/M103202L889-SK1 (antibody, human IgG1, kappa)
heavy: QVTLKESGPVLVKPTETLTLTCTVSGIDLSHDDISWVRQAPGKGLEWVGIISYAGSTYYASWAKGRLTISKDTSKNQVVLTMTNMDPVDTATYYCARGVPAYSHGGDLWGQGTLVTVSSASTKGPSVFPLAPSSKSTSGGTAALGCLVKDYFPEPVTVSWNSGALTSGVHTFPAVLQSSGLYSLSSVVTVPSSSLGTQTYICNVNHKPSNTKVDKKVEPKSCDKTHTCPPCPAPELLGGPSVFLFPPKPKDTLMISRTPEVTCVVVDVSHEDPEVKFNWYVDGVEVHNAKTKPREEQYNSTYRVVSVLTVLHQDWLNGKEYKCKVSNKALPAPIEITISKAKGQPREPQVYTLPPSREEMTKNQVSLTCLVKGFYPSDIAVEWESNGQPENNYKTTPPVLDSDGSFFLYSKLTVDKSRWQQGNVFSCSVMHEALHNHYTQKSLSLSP
light: B1 light
notes: as for B2
B24: M103205H795-MY196/M103202L889-SK1 (antibody, human IgG1, kappa)
heavy: not shown
light: B1 light
notes: as for B2
B25: M103205H795-MY068/M103202L889-SK1 (antibody, human IgG1, kappa)
heavy: not shown
light: B1 light
notes: as for B2
B26: MS_M103205H795-SG1/M103202L889-SK1 (antibody, human IgG1, kappa)
heavy: not shown
light: B1 light
notes: Parent antibody; also called MS1032LO06-SG1
B27: M103205H795-MY209/M103202L889-SK1 (antibody, human IgG1, kappa)
heavy: QVTLKESGPVLVKPTETLTLTCTVSGIDLSHDDISWVRQAPGKGLEWVGIISYAGSTYYASWAKGRLTISKDTSKNQVVLTMTNMDPVDTATYYCARGVPAYSHGGDLWGQGTLVTVSSASTKGPSVFPLAPSSKSTSGGTAALGCLVKDYFPEPVTVSWNSGALTSGVHTFPAVLQSSGLYSLSSVVTVPSSSLGTQTYICNVNHKPSNTKVDKKVEPKSCDKTHTCPPCPAPELLNGPSVFLFPPKPKDTLMISRTPEVTCVVVDVSDEDPEVKFNWYVDGVEVHNAKTKPREELYNSTYRVVSVLTVLHQDWLNGKEYKCKVSNTALPKPIEKTISKAKGQPREPQVYTLPPSREEMTKNQVSLTCLVKGFYPSDIAVEWESNGQPENNYKTTPPVLDSDGSFFLYSKLTVDKSRWQQGNVFSCSVMHEALHNHYTQKSLSLSP
light: B1 light
B28: M103205H795-MY142/M103202L889-SK1 (antibody, human IgG1, kappa)
heavy: B27 heavy with N238E, D270E, L297Q, T328K, K332A, P398M
light: B1 light
B29: M103205H795-MY229/M103202L889-SK1 (antibody, human IgG1, kappa)
heavy: B27 heavy with N238G, G239Y, T328K, P398K
light: B1 light
B30: M103205H795-MY143/M103202L889-SK1 (antibody, human IgG1, kappa)
heavy: B27 heavy with N238S, D270E, L297Q, T328K, K332A, P398M
light: B1 light

Biological target: T1, cynomolgus monkey FcγRIIa3 …
Assay: SPR, antibody captured, FcgR analyte

| Kd [µM] | Binder |
| --- | --- |
| 17 | B1 |
| 4.2 | B2 |
| 6.5 | B3 |
| 4.7 | B4 |
| 52 | B5 |
| 3.2 | B6 |
| 11 | B7 |
| 18 | B8 |
| 7.4 | B9 |
| 2 | B10 |
| 24 | B11 |
| 5.1 | B12 |
| 3.6 | B13 |
| 2.6 | B14 |
| 4.4 | B15 |
| 6.8 | B16 |
| 9.6 | B17 |
| 18 | B18 |
| 52 | B19 |
| 12 | B20 |
| 9.2 | B21 |
| 12 | B22 |
| 59 | B23 |
| 23 | B24 |
| 5.7 | B25 |

Biological target: T2, cynomolgus monkey FcγRIIa1 …
Assay: SPR (Biacore), antibody captured, FcgR analyte, 25 C

| Kd [µM] | Binder |
| --- | --- |
| 3.2 | B26 |
| 0.63 | B27 |
| 4.1 | B28 |
| 1.5 | B29 |
| 1.1 | B30 |

Biological target: T3, cynomolgus monkey FcγRIIa2 …
Assay: as above

| Kd [µM] | Binder |
| --- | --- |
| 5.1 | B26 |
| 0.63 | B27 |
| 4.9 | B28 |
| 2.2 | B29 |
| 1.3 | B30 |

Biological target: T4, cynomolgus monkey FcγRIIb extracellular …
Assay: as above

| Kd [µM] | Binder |
| --- | --- |
| 1.8 | B26 |
| 0.19 | B27 |
| 1.8 | B28 |
| 0.47 | B29 |
| 0.46 | B30 |

biological target: T7, cynomolgus monkey FcγRIIIaS extracellular domain, C-terminal His-tag (cynomolgus monkey, UniProt A3RFZ7 21-206 (rhesus entry)); assay: as above
T7 construct: also called cyno FcγRIIIaS; cynoFcγRIIIaS; not shown: His-tag added to C-terminus
T7 sequence (A3RFZ7 21-206): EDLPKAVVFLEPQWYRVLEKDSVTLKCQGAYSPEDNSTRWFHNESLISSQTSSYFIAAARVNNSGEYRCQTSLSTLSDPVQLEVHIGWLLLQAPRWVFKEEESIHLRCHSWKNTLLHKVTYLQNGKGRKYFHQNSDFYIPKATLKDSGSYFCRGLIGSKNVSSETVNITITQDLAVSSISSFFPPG

| Kd [µM] | Binder |
| --- | --- |
| 0.36 | B26 |
| 2.2 | B27 |
| 0.14 | B28 |
| 4.2 | B29 |
| 0.28 | B30 |

biological target: T5, human FcγRIIaH extracellular domain, …; assay: as above

| Kd [µM] | Binder |
| --- | --- |
| 0.69 | B26 |
| 0.57 | B27 |
| 0.19 | B28 |
| 0.98 | B29 |
| 0.037 | B30 |

biological target: T6, human FcγRIIb extracellular domain, …; assay: as above

| Kd [µM] | Binder |
| --- | --- |
| 4.6 | B26 |
| 0.5 | B27 |
| 0.95 | B28 |
| 0.15 | B29 |
| 0.68 | B30 |

biological target: T8, human FcγRIIIaV extracellular domain, C-terminal His-tag (human, UniProt P08637 17-208); assay: as above
T8 construct: also called FcgRIIIaV; not shown: His-tag added to C-terminus
T8 sequence (P08637 17-208 F176V): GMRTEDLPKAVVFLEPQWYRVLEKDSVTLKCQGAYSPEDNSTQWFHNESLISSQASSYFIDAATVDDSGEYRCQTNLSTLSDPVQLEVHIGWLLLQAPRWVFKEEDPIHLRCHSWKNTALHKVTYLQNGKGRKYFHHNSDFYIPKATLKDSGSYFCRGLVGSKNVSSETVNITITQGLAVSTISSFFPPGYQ

| Kd [µM] | Binder |
| --- | --- |
| 0.81 | B26 |
| 14 | B27 |
| 0.53 | B28 |
| 1.5 | B30 |
